Results published in US8962263B2, “Methods and compositions for detecting the activation state of multiple proteins in single cells” (The Board of Trustees of the Leland Stanford Junior …, priority 2001, dated 2015).
Where two headings read alike, the source gives them in different places.

Experiments:
LFA-1 = LFA-1 activation by mAb24-Alexa633 staining, flow cytometry; assay type: cell-based, human; conditions: Jurkat cells, agents 10 μM 30 min, PMA 1 μg/ml, prior to ICAM-2 10 μg/ml 30 min
Method: A) Confocal microscopy of actin and microtubule architecture upon ICAM-2, stimulus (10, μg/ml, 30, min) in Jurkat cells. Actin was stained by phalloidin-alexa633, and tubulin by taxol-alexa546. Inserts display enlarged cell image of representative treatment B) Flow cytometric staining for actin and microtubules as described above. C) Left: Fluorescence topography analysis of ICAM-2-FITC (1 μg/ml, time as indicated) surface distribution. Intensity color gradient depicts high and low fluorescent intensity values. Right: Confocal microscopy of ICAM-2-FITC surface binding (10 μg/ml, 30, min) and anti-β2-alexa568, (clone CTB104). D) Staining for ICAM-2-FITC surface binding (fluorescence intensity) and surface distribution (fluorescence pulse) in cytochalisin D treated Jurkat cells at 37° C. and 4° C. by flow cytometry. E) Values for ICAM-2-FITC fluorescence intensity per time-of-flight per cell as described in text. F) Flow cytometric staining for LFA-1 activation by mAb24-alexa633. Stimuli as indicated (10, μM, 30, min), PMA (1, μg/ml) prior to ICAM-2, stimulation (10, μg/ml, 30, min). Staining was performed at 37° C. G) Mean fluorescence intensity (MFI) values of mAb24-633, and ICAM-2, cluster values, computed as described above, as a function of time.
Intracellular and extracellular staining was performed as described (Perez and Nolan, 2002). Intracellular probes for active kinases were made by conjugating phospho-specific antibodies to the ALEXA FLUOR® dye series as described and used in phospho-protein optimized conditions (Perez and Nolan, 2002). Kinetic analyses was performed by direct application of fixation buffer in time synchronized 96-wells maintained at 37° C. Intracellular actin and microtubule staining was performed using phalloidin-Alexa633 and taxol-Alexa546 dyes (Molecular Probes). Adhesion and clustering assays were performed using ICAM-2-FITC as described in text. LFA-1 activation was assessed by either mAb24-Alexa633 or mAb24-Alexa546 conjugate, surface stained at 37° C. Flow cytometry data are representative of 3 independent experiments of 10^6 cells/sample. 10-50,000 events were collected and manually calibrated on a FACSCalibur™ machine. Data plotted in bar graph format is expressed as geometric mean fluorescence intensity (MFI) and normalized for isotype controls. Log ratios are defined as the MFI of stimulus to the MFI of unstimulated cells. Data was analyzed using Flowjo™ software (Treestar).

cell surface LFA-1 = biological target: T1, cell surface LFA-1 (Homo sapiens, UniProt P20701); assay: ICAM-2-FITC surface binding on Jurkat cells by flow cytometry (single cell binding measurements)
T1 construct: within the physiological context of cell surface LFA-1; endogenous in cells; host or cells: Jurkat T cells
T1 sequence (P20701 26-1170): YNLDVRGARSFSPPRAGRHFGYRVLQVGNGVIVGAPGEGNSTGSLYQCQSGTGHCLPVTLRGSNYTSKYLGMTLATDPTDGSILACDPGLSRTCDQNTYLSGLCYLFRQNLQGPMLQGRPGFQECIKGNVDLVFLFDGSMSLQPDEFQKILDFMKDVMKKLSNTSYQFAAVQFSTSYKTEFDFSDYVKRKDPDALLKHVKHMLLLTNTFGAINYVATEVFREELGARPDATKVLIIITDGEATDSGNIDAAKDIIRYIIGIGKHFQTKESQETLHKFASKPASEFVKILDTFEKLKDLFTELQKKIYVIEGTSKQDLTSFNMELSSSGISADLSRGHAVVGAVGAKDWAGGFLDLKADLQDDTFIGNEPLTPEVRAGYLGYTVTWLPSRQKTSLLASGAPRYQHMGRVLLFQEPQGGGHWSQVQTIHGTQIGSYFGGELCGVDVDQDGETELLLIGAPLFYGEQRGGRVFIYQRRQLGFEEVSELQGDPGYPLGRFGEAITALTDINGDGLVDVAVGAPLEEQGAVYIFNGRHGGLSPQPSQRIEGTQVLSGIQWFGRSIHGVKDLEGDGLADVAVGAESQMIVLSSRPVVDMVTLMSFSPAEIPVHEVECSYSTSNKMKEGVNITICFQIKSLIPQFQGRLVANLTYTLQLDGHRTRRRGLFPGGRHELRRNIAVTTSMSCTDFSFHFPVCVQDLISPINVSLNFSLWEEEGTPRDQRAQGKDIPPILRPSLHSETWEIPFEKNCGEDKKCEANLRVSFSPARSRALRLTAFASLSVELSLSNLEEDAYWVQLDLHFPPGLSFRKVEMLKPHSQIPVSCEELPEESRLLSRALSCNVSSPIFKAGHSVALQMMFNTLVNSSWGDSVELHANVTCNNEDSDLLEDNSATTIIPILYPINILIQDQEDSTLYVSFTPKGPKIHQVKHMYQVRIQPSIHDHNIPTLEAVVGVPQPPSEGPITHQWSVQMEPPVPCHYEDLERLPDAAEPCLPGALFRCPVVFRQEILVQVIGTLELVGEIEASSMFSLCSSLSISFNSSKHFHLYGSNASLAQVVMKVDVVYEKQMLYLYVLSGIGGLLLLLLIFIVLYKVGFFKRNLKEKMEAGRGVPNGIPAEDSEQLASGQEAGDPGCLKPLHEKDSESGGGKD
T1 sequence (P05107 23-769 partner): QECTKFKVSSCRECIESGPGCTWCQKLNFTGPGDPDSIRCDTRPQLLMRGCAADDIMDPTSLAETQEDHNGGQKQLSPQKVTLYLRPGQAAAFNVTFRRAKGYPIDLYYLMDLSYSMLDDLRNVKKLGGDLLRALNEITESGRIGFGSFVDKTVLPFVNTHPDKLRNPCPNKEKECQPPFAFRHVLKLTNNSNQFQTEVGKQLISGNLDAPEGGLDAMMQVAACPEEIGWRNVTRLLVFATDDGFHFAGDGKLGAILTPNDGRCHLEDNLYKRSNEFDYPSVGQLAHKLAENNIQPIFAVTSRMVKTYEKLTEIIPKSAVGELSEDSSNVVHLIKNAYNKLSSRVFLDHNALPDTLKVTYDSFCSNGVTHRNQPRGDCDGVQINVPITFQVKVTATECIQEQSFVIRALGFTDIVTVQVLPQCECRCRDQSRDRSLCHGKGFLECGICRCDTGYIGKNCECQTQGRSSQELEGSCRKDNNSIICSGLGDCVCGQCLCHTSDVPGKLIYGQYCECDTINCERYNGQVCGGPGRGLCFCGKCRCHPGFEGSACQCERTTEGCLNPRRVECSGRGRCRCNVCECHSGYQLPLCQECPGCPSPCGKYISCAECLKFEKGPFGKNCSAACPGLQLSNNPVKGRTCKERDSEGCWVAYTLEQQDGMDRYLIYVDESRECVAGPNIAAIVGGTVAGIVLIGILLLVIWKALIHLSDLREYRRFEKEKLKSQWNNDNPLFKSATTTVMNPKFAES
Method: A) Purified human ICAM-2, from retrovirally transduced NIH3T3, (see materials and methods) was tested for purity, size, and aggregate formation by native gel electrophoresis and gel filtration. Analysis of purified ICAM-2, from two different preps and ICAM2-FC from NSO cells. Molecular weight was calculated using relative distance migration from a molecular weight standard. Concentration was determined using serial dilutions of BSA as a standard. […] B) ICAM-2, ligand binding to cell surface as a function of time. 5×10^6, unstimulated and PMA stimulated (1, μg/ml, 30, min) Jurkat T cells were incubated with ICAM-2-FITC or LFA-1-FITC antibody (1, μg/ml) and subjected to time dependent flow cytometry. Mean fluorescence intensity was plotted per time of a gated homogenous cell population. Flow rate was maintained at 200-300, cells/second, with fluorescence intensity values acquired at 10, millisecond intervals for 1200, seconds. C) Flow cytometric analysis of ICAM-2-FITC and a-LFA-1-FITC surface binding on cytochalisin D treated (10, μM, 30, min) Jurkat cells at 37° C. and 4° C. D) Curve fit analysis of ICAM-2-FITC binding per 10^4, cells. Jurkat cells were incubated with ICAM-2-FITC at 37° C. for 30, min at indicated concentrations in 50, μL volume. Cells were washed 1×, and analyzed for mean fluorescent intensity (MFI) of 10^4, cells. Percent ICAM-2-FITC bound was calculated from the following equation: 100×[(MFI[×]−MFIunstained)/(MFI[saturated]−MFIunstained)] where [×]=ICAM-2-FITC concentration and [saturated]=concentration that saturated binding. Values were fit to the equation Y=m1*M0/(m2+M0) (see materials and methods).
Full length ICAM2 cDNA was obtained from Jurkat cells and cloned into retroviral vector PBM-Z-IN at the BamHI/Sal1 site as described (Perez et al., 2002). Human ICAM-2 was overexpressed in NIH3T3 cells by retroviral infection and harvested by immunoaffinity chromatography. ICAM-2 was affinity purified using a two step lysing procedure and subsequent purification on an anti-ICAM-2 solid support. […] Batch lysate of harvested supernatant was performed (4° C., for 2 hrs), and washed 4 times in buffer C (0.1% Tween-20, PBS pH 7.4). ICAM-2 protein was eluted by 4.5 M NaCl (in Tris pH 6.8), dialyzed overnight (in PBS pH 7.4, 0.001% azide, 0.01% glycerol, 4° C.), concentrated using size exclusion spin chromatography and stabilized using 0.01% glycerol. Anti-ICAM-2 solid support was re-equilibrated in buffer C, stored in 0.001% thimerosol and re-used up to 3 times. Purity was >98% as assessed by coomasie gel. […] Gel imaging was performed on a VersaDoc machine (Biorad) and analyzed using Quantity One quantitation software (Biorad). […]

| Molecule | LFA-1 activation (mAb24 binding) (LFA-1) | ICAM-2 adhesion measured by binding of ICAM-2-FITC (cell surface LFA-1; PKC inhibitor treated cells) | LFA-1 activation (mAb24 binding) (LFA-1; listed as full length ICAM-2) | Kd (cell surface LFA-1; Jurkat cells, 37° C., 30 min, curve fit analysis, read-out: dissociation constant of ICAM-2-FITC binding) [nM] | Kd (cell surface LFA-1; per 10^4 cells, read-out: calculated ICAM-2 affinity) [nM] |
| --- | --- | --- | --- | --- | --- |
| CN(C)CCCn1cc(C2=C(c3c[nH]c4ccccc34)C(=O)NC2=O)c2ccccc21 [bisindolymaleimide I] | inhibited ICAM-2 induced LFA-1 activation | not affected |  |  |  |
| ICAM-2: biochemically purified soluble human ICAM-2 protein from retrovirally transduced NIH3T3 cells; ICAM-2-FC fusion also used (protein, UniProt P13598 25-223, looked up, extracellular domain, biochemically purified soluble human ICAM-2 protein from retrovirally transduced NIH3T3 cells; ICAM-2-FC fusion also used) extracellular domain: KVFEVHVRPKKLAVEPKGSLEVNCSTTCNQPEVGGLETSLDKILLDEQAQWKHYLVSNISHDTVLQCHFTCSGKQESMNSNVSVYQPPRQVILTLQPTLVAVGKSFTIECRVPTVEPLDSLTLFLFRGNETLHYETFGKAAPAPQEATATFNSTADREDGHRNFSCLAVLDLMSRGGNIFHKHSAPKMLEIYEPVSDSQ | bimodal population in active LFA-1 |  | resulted in active LFA-1 | 210 ± 70 | 217 ± 66 |
